Reference: IntAct's records for PubMed 24606901

B1: Succinate dehydrogenase [ubiquinone] iron-sulfur subunit, mitochondrial (Homo sapiens), P21912 (parent)
chain: MAAVVALSLRRRLPATTLGGACLQASRGAQTAAATAPRIKKFAIYRWDPDKAGDKPHMQTYEVDLNKCGPMVLDALIKIKNEVDSTLTFRRSCREGICGSCAMNINGGNTLACTRRIDTNLNKVSKIYPLPHMYVIKDLVPDLSNFYAQYKSIEPYLKKKDESQEGKQQYLQSIEEREKLDGLYECILCACCSTSCPSYWWNGDKYLGPAVLMQAYRWMIDSRDDFTEERLAKLQDPFSLYRCHTIMNCTRTCPKGLNPGKAIAEIKKMMATYKEKKASV
partner: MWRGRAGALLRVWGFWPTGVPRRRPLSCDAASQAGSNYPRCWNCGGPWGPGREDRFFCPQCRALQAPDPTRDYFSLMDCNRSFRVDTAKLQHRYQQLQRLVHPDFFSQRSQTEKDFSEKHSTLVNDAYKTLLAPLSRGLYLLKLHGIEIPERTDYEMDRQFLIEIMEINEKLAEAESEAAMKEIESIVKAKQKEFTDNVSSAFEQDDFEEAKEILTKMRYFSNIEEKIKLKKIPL

Variants of: B1
Settings: with hsc20_human HSCB

effect of a mutation on the interaction | Variant
disrupting interaction strength | I44A

Variants of: B1
Settings: with hsc20_human HSCB
Remark: another data set of the same source

effect of a mutation on the interaction | Variant
disrupting interaction | K276A;K277A
disrupting interaction strength | K267A;K268A

Variants of: B1
Settings: with hsc20_human HSCB
Remark: another data set of the same source

effect of a mutation on the interaction | Variant
disrupting interaction strength | L240A
